Where two headings read alike, the source gives them in different places.
How the values were obtained:
[1] = confocal immunofluorescence, HeLa cells; conditions: glycan lost; control: WT hACE2
[2] = glycan lost
[3] = syncytia formation, GFP+ area, co-transfected HEK293T; conditions: glycan lost; control: WT hACE2
[4] = anti-ACE2 western blot, HEK293T lysates; conditions: glycan lost; control: WT hACE2
[5] = flow cytometry, surface/total MFI ratio, HeLa; conditions: glycan lost; control: WT hACE2
[6] = VSVpp infection, BFP+ cells, HEK293T without TMPRSS2; conditions: glycan lost; control: WT hACE2
[7] = qRT-PCR of viral N RNA, transfected HEK293T; conditions: glycan lost; control: WT hACE2

hACE2 (angiotensin-converting enzyme 2): N53A
localisation_or_trafficking [1]: no change | other: cell-cell fusion [2]: decreases | other: viral entry receptor function, fold_change [2]: no change | other: cell-cell fusion [3]: no change | expression_or_secretion [4]: no change | localisation_or_trafficking [5]: no change

hACE2 (angiotensin-converting enzyme 2): N90A
localisation_or_trafficking [1]: no change | other: susceptibility to genuine virus infection [2]: no change | other: susceptibility to genuine virus infection, fold_change [2]: increases | other: viral entry receptor function, fold_change [2]: no change | expression_or_secretion [4]: no change | localisation_or_trafficking [5]: no change

hACE2 (angiotensin-converting enzyme 2): N103A
localisation_or_trafficking [1]: no change | other: viral entry receptor function, fold_change [2]: no change | expression_or_secretion [4]: no change | localisation_or_trafficking [5]: no change

hACE2 (angiotensin-converting enzyme 2): N322A
localisation_or_trafficking [1]: no change | other: Camostat sensitivity of S-mediated entry [2]: decreases | other: susceptibility to genuine virus infection [2]: increases | other: viral entry receptor function, fold_change [2]: increases | other: viral entry receptor function ([2]; control: WT hACE2): no change | other: viral entry receptor function [6]: increases | other: susceptibility to genuine virus infection [7]: decreases | expression_or_secretion [4]: no change | localisation_or_trafficking [5]: no change

hACE2 (angiotensin-converting enzyme 2): N432A
localisation_or_trafficking [1]: no change | other: viral entry receptor function, fold_change [2]: no change | expression_or_secretion [4]: no change | localisation_or_trafficking [5]: no change

hACE2 (angiotensin-converting enzyme 2): N546A
localisation_or_trafficking [1]: no change | other: viral entry receptor function, fold_change [2]: no change | expression_or_secretion [4]: no change | localisation_or_trafficking [5]: no change

hACE2 (angiotensin-converting enzyme 2): N690A
localisation_or_trafficking [1]: no change | other: viral entry receptor function, fold_change [2]: increases | other: viral entry receptor function [6]: increases | other: susceptibility to genuine virus infection [7]: no change | other: susceptibility to genuine virus infection, fold_change [7]: no change | expression_or_secretion [4]: no change | localisation_or_trafficking [5]: no change

hACE2 (angiotensin-converting enzyme 2): T92I
localisation_or_trafficking [1]: no change | expression_or_secretion [4]: no change | localisation_or_trafficking [5]: no change

From PMC12090729
